In the DeepSol protein solubility set:

test: soluble on expression in E. coli; label from the status in PepcDB or PDB records

Sequence	soluble on expression in E. coli
MKQKNENAPRPGGAGRKPKADPAVFRYSISFNAIDHARFLALFDQSGMRTKAHFITARIFGEPFKVIKIDKAAVEYYTRLTALYSQYRGIAVNYNQVVKALNTNFSEKKALAFLYKLEKATIELADLNRQIIELTREFETRWLQR	not soluble
AIALVSHGAIVKSAPKHWNGSKCPIRMQVRVPDPDRRSLLRAGAHIILGGLLATVIPGTSPSIAKIREKPTDKGEEAPKIDDEKELDKYVSGLKYEEELYENPDPAEKEVYRTPRVEREPEYKKKEDEILEKESKVLKEEAREAARESEVLRQEFEKR	soluble
LLQHAYNPINWYSWNDEAFKKAKEEDKPIFLSVGYSTCHWCHVMEKESFEDEEVAEIMNRNFVAIKVDKEERPDVDSVYMTVCQAMTGSGGWPMTIIMTPDKKPFFAGTYFPKYSRYNRPGVIDLLENVSEKWNTSRDILIKSGDEIIEAL	not soluble
MKLSEYGLQLQEKQKLRHMYGVNERQFRKTFEEAGKMPGKHGENFMILLESRLDNLVYRLGLARTRRQARQLVTHGHILVDGSRVNIPSYRVKPGQTIAVREKSRNLQVIKEALEANNYIPDYLSFDPEKMEGTYTRLPERSELPAEINEALIVEFYSR	soluble
MSLGLHITDQQVHRYMSQRRHHTQAVAAAKAGISERSARRIDKNPQLPSQKKRERHWRTRPDPLEQIWPRVEELLKIAGILSVTIFETVQDEFGEAAVPDGVRRTLERRIARWRALNGGEKEIFFPQHHEIGRQGLLDFTVADDLHVTIAGQRFDHRLFHFRLASSGWEDSAVVLGGESFTALSEHLQDALWKLGGVPAELRSDSLSAAYKNLDADAQRDFTRNYEALCRHYGMTPTRNNKGVAHENGSIEAPNGHLKRRMDQALRRRSSRDFPSIEDYRRFVDQEVAKQNRRRARLMDDERRVLKSLPPKRTTDFTLVSADVTRNSTISVDRVTYSVPSRLIGYRLHAHLYDDRVEFFLGPDQVMTADRVRVKHAERGHNIDFRHFIGNLKRKPQALRYLVYRNALFPTHAYTRAWQALDAALDARQACRDMVALLDIAANGNCVDALALRIEAALDRGKLPNVAKLKSEFLPTVRSRVDVTIPPPDFAGYNHLLANAQEGHHHHHH	not soluble
MSAYKTVVVGTDGSDSSMRAVDRAAQIAGADAKLIIASAYLPQHEDARAADILKDESYKVTGTAPIYEILHDAKERAHNAGAKNVEERPIVGAPVDALVNLADEEKADLLVVGNVGLSTIAGRLLGSVPANVSRRAKVDVLIVHTT	not soluble
SLEKHSWYHGPVSRNAAEYLLSSGINGSFLVRESESSPGQRSISLRYEGRVYHYRINTASDGKLYVSSESRFNTLAELVHHHSTVADGLITTLHYPAPKRNKPTVYGVSPNY	soluble
METRAAENTAIFMCKCCNLFSPNQSELLSHVSEKHMEEGVNVDEIIIPLRPLSTPEPPNSSKTRDEFLVMKRKRGRPKGSTKKSSTEEELAENIVSPTEDSPLAPEEGNSLPPSSLECSKCCRKFSNTRQLRKHICIIVLNLGEEEGEAGNESDLELEKKCKEDDREKASKRPRSQKTEKVQKISGKEARQLSGAKKPIISVVLTAHEAIPGATKIVPVEAGPPETGATNSETTSADLVPRRGYQEYAIQQTPYEQPMKSSRLGPTQLKIFTCEYCNKVFKFKHSLQAHLRIHTNEKPYKCPQCSYASAIKANLNVHLRKHTGEKFACDYCSFTCLSKGHLKVHIERVHKKIKQHCRFCKKKYSDVKNLIKHIRDAHDPQDKKVKEALDELCLMTREGKRQLLYDCHICERKFKNELDRDRHMLVHGDKWPFACELCGHGATKYQALELHVRKHPFVYVCAVCRKKFVSSIRLRTHIKEVHGAAQEALVFTSSINQSFCLLEPGGDIQQEALGDQLQLVEEEFALQGVNALKEEACPGDTQLEEGRKEPEAPGEMPAPAVHLASPQAESTALPPCELETTVVSSSDLHSQEVVSDDFLLKNDTSSAEAHAAPEKPPDMQHRSSVQTQGEVITLLLSKAQSAGSDQESHGAQSPLGEGQNMAVLSAGDPDPSRCLRSNPAEASDLLPPVAGGGDTITHQPDSCKAAPEHRSGITAFMKVLNSLQKKQMNTSLCERIRKVYGDLECEYCGKLFWYQVHFDMHVRTHTREHLYYCSQCHYSSITKNCLKRHVIQKHSNILLKCPTDGCDYSTPDKYKLQAHLKVHTALDKRSYSCPVCEKSFSEDRLIKSHIKTNHPEVSMSTISEVLGRRVQLKGLIGKRAMKCPYCDFYFMKNGSDLQRHIWAHEGVKPFKCSLCEYATRSKSNLKAHMNRHSTEKTHLCDMCGKKFKSKGTLKSHKLLHTADGKQFKCTVCDYTAAQKPQLLRHMEQHVSFKPFRCAHCHYSCNISGSLKRHYNRKHPNEEYANVGTGELAAEVLIQQGGLKCPVCSFVYGTKWEFNRHLKNKHGLKVVEIDGDPKWETATEAPEEPSTQYLHITEAEEDVQGTQAAVAALQDLRYTSESGDRLDPTAVNILQQIIELGAETHDATALASVVAMAPGTVTVVKQVTEEEPSSNHTVMIQETVQQASVELAEQHHLVVSSDDVEGIETVTVYTQGGEASEFIVYVQEAMQPVEEQAVEQPAQEL	soluble
MGSSHHHHHHSSGLVPRGSHMTRSKVAIIGGGPAGSVAGLTLHKLGHDVTIYERSAFPRYRVGESLLPGTMSILNRLGLQEKIDAQNYVKKPSATFLWGQDQAPWTFSFAAPKVAPWVFDHAVQVKREEFDKLLLDEARSRGITVHEETPVTDVDLSDPDRVVLTVRRGGESVTVESDFVIDAGGSGGPISRKLGVRQYDEFYRNFAVWSYFKLKDPFEGDLKGTTYSITFEDGWVWMIPIKDDLYSVGLVVDRSKSAEVREQGADAFYSSTLAKCAKAMDILGGAEQVDEVRIVQDWSYDTEVFSADRFFLCGDAACFTDPLFSQGVHLASQSAVSAAAAIDRITRHGDEKDAVHAWYNRTYREAYEQYHQFLASFYTFASFTEPDSEFWRKRRITESDDDRLTRKKWFESLAGNGPEDPSGTVASFRDRASTMIAIGRHQRPELSDDFSEAELNPARVRWISDLTKRLNSITRFKWTGGKAVLKQHYRVEPIGFRLEQREVLANGEGLDMAQYPMDDEARQIFQDLAEEEFGYKTLVKRLGAVGRQELSTQIVVRLMEAGLLTGYDAQGEKVFVQGRLHFGGVGVEYEV	soluble
MGSDKIHHHHHHMKAGTQKTLTHSDLVEQGVRFLLASYVDLHGVPKAKAVPISHFDRMMNGSEMFTGAALDGVPQEISDEEVAAHPDMGSAIVLPWSKDIAWLPSDLYTQGEPFNACSRTILKKVRQQAAELGMAMQLGIEAEFFVLKDQEAGGFSPISTRHHLKKPAYDVARLLDNKPWLSELVEAMDSLDWGVYSFDHEDGIGQFEIDFSYFEVLRMADNFTFLRMMANEIARKHGGFASFMPKPYGDRAGSGAHFNISLTDINTGLNLFEPEQDDPRGCGLSTLGYQFIAGVLRHLPAICAVVAPTVNSYKRLVKQGSMSGFTWAPVFCCYGNNNRTNTIRIPLGGKRIEIRAVDSACNPYLGAAMILAAGLEGIRENLDPGDPHLDNMYEKTPEELASLGIRELPKTLEEAIDAFEADPLSRQVFGDQMFSAWTQYKREEWLSYITHVSDWEYDRYLKLF	not soluble
MHKVQRSVLVPYSAAQMFDLVADVEKYPEFMPWCGGAEVHSRSEHGMQASILISFAGLKQRFSTRNTHDYPQRIDLELVDGPFSMLVGHWVFQPLAEDACKVLFTLEYAFSNRALEMVVGPVFNRIAASFIDSFTKRAQAKYGEAAALEHHHHHH	soluble
MAHHHHHHMCVRSMDPTKKGNENFPQRNVAIEEANFDSAFPAFNVHYNVEPKDWRHIELVEKEKQDFLLGIKKEIRLMQEDKNKINYVLNVQKQQLEELQFLLNRMKHFRRKSLIAEGEEQLKVDLLAMPRYLRTGTLFSVDTLGEENALRDFNELHNYSVDKSRLTTRGSFYHNLAEQWVG	not soluble
MAGGEDRGDGEPVSVVTVRVQYLEDTDPFASANFPEPRRAPTCSLDGALPLGAQIPAVHRLLGAPLKLEDSALQVSPSGYYLDTELSLEEQREMLEGFYEEISKGRKPTLILRTQLSVRVNAILEKLYSSSGPELRRSLFSLKQIFQEDKDLVPEFVHSEGLSCLIRVGAAADHNYQSYILRALGQLMLFVDGMLGVVAHSDTIQWLYTLCASLSRLVVKTALKLLLVFVEYSENNAPLFIRAVNSVASTTGAPPWANLVSILEEKNGADPELLVYTVTLINKTLAALPDQDSFYDVTDALEQQGMEALVQRHLGTAGTDVDLRTQLVLYENALKLEDG	soluble
MSLSNKIVLTSPDRKTTRLLEKVRKEYDFKIDAYEATFDDAVELIRGKVAHREHWDPIIATGGATLGLLRDNLGRMPWVNIFPTEYDLVIALEQAKKTKKTIGLFNPGQIDTEAIKAVCSAIQIDAHIYRYNSWKEVLVQVEKAYQDGVEVAIGAGEKISSAVERKNIQYVSVTSGEYTIRRAFKYAQLLVDLKRNEKVSHEEGHHHHHH	not soluble
MGSDKIHHHHHHASEPVSVASTPETDEIDQLFDDMQLDGIVSYTAFRQAVTGYQKIEQKSKSIMTLIDFSKPSTEKRLYVLDMKNKKLLYTSVVSHGKNSGGNYATSFSNKNGSYKSSLGFYLTENTYQGRNGYSLVLNGLEKGINDQAKQRAIVMHGAAYANPNITASAGRLGRSLGCPALPQALAKPIIDTIKKGSVLFIYANNKDYLANSTFLSPRQTEYLSWAQPAN	not soluble
MTTAPAKISEYTVSTPDRTVASVRADGIVAATPLGSHGYAADAGGPHLAPGVSAAAVVPVSPFRVDRTNWVVCPPVSVTVARDETTVELHADGHAHGRVPVDSPVTLSWGTPLPIAVVSHAGTHGD	soluble
SDSFWEPGNYKRTTKRIEDGYKLCNDLQQLIQERADIEKGYAKSLRTWSKKWGELIEKGPEYGTTEAAWKGVLTESERISDVHMKIKDNLCNDVNSQIKTWQKENYHHTLMQIKERKDLEDLFKKAQKPWAKLLAKVEKAKADYHSACKTERSATNQERNANADSSLSPDQVKKMHDRVQKTKDQVQKCREKYEQAIAEITKYNSVYIEDMTSVFEKCQTFEKTRLQFFKEILFNVHSCLDLTKVQSLPQIYEEFSHTINNADQQKDLKWWSNNHGINMAMNWPSFVEYT	soluble
MKTISNEQLTIQVSPHGAELCSIFANGKEYLWQADPAFWKRHSPVLFPIVGSVWENQYRNEGIAYTLSQHGFARDMEFTLVSEKEDEVRYHLVSNEETLRKFPFPFCLEIGYRIQGKQIEVIWEVKNTGEKEMYFQIGAHPAFYWPDFNADTQNRGFFGFDKEEGLKYILISEKGCADPSTEYSLELTDGLLPLDTHTFDKDALIIENEQIHKVTLYTKEKKAYLSLHFHAPVVGLWSPPAKNAPFVCIEPWYGRCDRAHYTGEYKDKDWMQHLQPEETFRGGYTIEIDELEHHHHHH	not soluble
PISKMVTAHFVLIHTICHGAWIWHKLKPALERAGHKVTALDMAASGIDPRQIEQINSFDEYSEPLLTFLEKLPQGEKVIIVGEACAGLNIAIAADRYVDKIAAGVFHNSLLPDTVHSPSYTVEKLLESFPDWRDTEYFTFTNITGETITTMKLGFVLLRENLFTKCTDGEYELAKMVMRKGSLFQNVLAQRPKFTEKGYGSIKKVYIWTDQDKIFLPDFQRWQIANYKPDKVYQVQGGDHKLQLTKTEEVAHILQEVADAYA	soluble
MSKSEEKQELPLETSPYTKYEDIEDYKKNAYGTSGHQDVKPGHGGGTTDAPTPSGDAAPSAIDSANQKAKK	soluble
